Experimental data from the supplement of paper PMC12764529.
± gives the half width of the 95% confidence interval.

Legend:
[1] = folding stability dG unfold from chymotrypsin proteolysis; higher = more stable
Method: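 Folding stability of de novo designed mini-proteins (<80 aa, no Cys; designed by TrROS, TrMRF, ProteinMPNN and the joint model) was measured by cDNA display proteolysis with trypsin and chymotrypsin. Each protease was used at 11 concentrations in a threefold dilution series plus a no-protease condition. K50 was inferred by Bayesian fitting of sequencing counts, and dG unfold was derived against a sequence-predicted unfolded-state K50 (Tsuboyama et al. method). Sequences shown include variable-length N-terminal GS-type padding (SAGGSAGG...) inside a display construct carrying a PA tag. Rows were kept only if the AF2 dimer inter-PAE was >15, to exclude likely homo-oligomers.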

[2] = folding stability dG unfold (combined trypsin and chymotrypsin); higher = more stable
Method in brief: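 How resistant each design was to proteolysis was captured as K50, inferred by Bayesian fitting of sequencing counts. Unfolding free energy was then derived relative to a sequence-predicted unfolded-state K50 and a shared folded-state K50, per protease or combined. Digestion used trypsin and chymotrypsin at 11 threefold-diluted concentrations plus a no-protease condition, on mini-proteins under 80 residues without cysteine in a PA-tagged cDNA display construct. Designs were kept only when AlphaFold2 dimer inter-PAE was above 15.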

Sequence | folding stability dG unfold [1] | folding stability dG unfold [2]
SAGGSAGGSAGPPPMEPIFTFTNPKEPVTIYRSKDPGNYHIYDPPNGKERTIPPNDPNFFSAGGSAGGSAGG [r11_1007_TrROS] | -0.0661 ± 0.55 kcal/mol | < -1 kcal/mol
SAGGSAGGSAGSSSSAVRESFQKSPTNVVTRTVTTYDANPSVLSTSSTTVPLSSVPPELLSAGGSAGGSAGG [r11_493_JUSTAS] | 0.44 ± 0.13 kcal/mol | 0.00507 ± 0.15 kcal/mol
SAGGSALTAKEARELVRNYAREHNPDYKVKGIEVERLPDKWVHADIEVRPPENPGQEHEWSIWIPYSAGGSA [r15_627_TrROS] | -0.418 ± 0.33 kcal/mol | -0.986 ± 0.31 kcal/mol
SDKDEKVIPSTSTSTDPETGTVTTTSTNTTITKGKIISPTTVTTTYPTATTTTTSTTIVDPNGNITTINSSA [r9_1015_JUSTAS] | 0.97 ± 0.042 kcal/mol | 0.299 ± 0.14 kcal/mol
SAGGSSLDDPSLLPGVTLTVTLPETGEVLRVPSSEVVSGPLSEAAARVRAEVAAAHPGRPWEVRAESAGGSA [r2_392_JUSTAS] | -0.728 ± 0.42 kcal/mol | < -1 kcal/mol
SAGGSAPKIYSVEEKELPDNYRLIVFKADKSDPEFIEEIAELLPKEKVEPLSKSEDGYYVVRLPLESAGGSA [r15_386_TrMRF] | 0.0639 ± 0.23 kcal/mol | -0.0414 ± 0.26 kcal/mol
SAGGSASPVLVELPEGVRVELPPDTMTVTIRLPNGTEVVVPLENPEPPDPAAALARARAVVAALPESAGGSA [r15_748_JUSTAS] | 0.774 ± 0.1 kcal/mol | 0.185 ± 0.11 kcal/mol
SAGGSAGGSSTLSVELPDFTGSAADVLAALRAAFPDPALVLDGVEVRPLGADRPGWRVELAVASAGGSAGGS [r12_348_JUSTAS] | 0.958 ± 0.091 kcal/mol | 0.499 ± 0.078 kcal/mol
SAGGSAGGSAGMKTKATFVIDNEEYDATIDPGTPKNSTATVTKPDSTTTITVTNIKLFPESAGGSAGGSAGG [r11_247_JUSTAS] | 0.897 ± 0.062 kcal/mol | 0.346 ± 0.11 kcal/mol
SAGGSAGGLTITLPNGATVTINEDDLEVVEVTFEPAPPAPPVRTETRTVTETRTVTTLAPGEEASAGGSAGG [r6_585_TrROS_Hall] | 0.938 ± 0.035 kcal/mol | 0.403 ± 0.11 kcal/mol
SAGGSAGGSAGAVTVTLTGGPTLEIPIPDVPPEELGTPEVVARIEAIAAARGLTIASIRLSAGGSAGGSAGG [r11_467_JUSTAS] | -0.14 ± 0.14 kcal/mol | < -1 kcal/mol
SAGGSAGGSALRPDEPFLVRVRIVDPRPGEGPPVERELVLPLEAILRLIPPGAGADVELLPSAGGSAGGSAG [r3_223_TrMRF] | -0.747 ± 0.94 kcal/mol | < -1 kcal/mol
SAGGSAGGSSSRFEAIKKKILDAFPEDVIKEVKKGPGKIYVVGKPEYIKEIKKLTGSKDIIINSAGGSAGGS [r12_748_JUSTAS] | -0.559 ± 0.36 kcal/mol | -0.606 ± 0.34 kcal/mol
SAGGSAGGSAGDNGPLVIEVDISPDALADAVKNNKPLNANVRIYRPDGSPGGVFDLLIPASAGGSAGGSAGG [r11_26_TrMRF] | 0.217 ± 0.076 kcal/mol | -0.126 ± 0.12 kcal/mol
SAGGSAGGSKIKSITIDPEAGKVTIEVDKDTPPKPLPSVKTVEEKNDGYTVTFDVKDDEEILLSAGGSAGGS [r20_37_TrMRF] | 0.416 ± 0.086 kcal/mol | -0.39 ± 0.41 kcal/mol
SAGGSAGGSAIKIETQGTPEEAREFAKDFANKNPELLENMKIDVITWRPPEPKYTPNGKPKSAGGSAGGSAG [r3_89_TrROS] | -0.104 ± 0.2 kcal/mol | -0.759 ± 0.24 kcal/mol
SAGGMRLEHLRNMIKNMPPGMKDVNINQHPGHGNYTFSVENPNKPVSIPFDSPEDQQEIQELAREYVKSAGG [r13_287_TrROS] | 0.19 ± 0.19 kcal/mol | -0.417 ± 0.29 kcal/mol
SAMELVLEESTELAEDPTNPGVLVPRTTTRELPVEPPPVVVIGSEENAKKLKKKGEVEVPPSGIILIPLSAG [r14_582_JUSTAS] | 0.517 ± 0.21 kcal/mol | 0.137 ± 0.24 kcal/mol
SAGTTTITVPASEASEEEVQALIDEIEAANPHLKVKEVKETVVPLPTPKPVRLRTIIINAELPLPPELLSAG [r5_835_JUSTAS] | 0.447 ± 0.18 kcal/mol | -0.132 ± 0.47 kcal/mol
SAGGSAGGSAGYKPDPDGQYTQEMRLPREPPRIRITIPMSPNDPDKAQKFINNLAEEFGISAGGSAGGSAGG [r17_501_TrROS] | -0.0614 ± 0.64 kcal/mol | -0.32 ± 0.32 kcal/mol
SAGGSAGGSSPKAQRLQDRIRQEFPPNEIDKVEMSGDKIVIHGRPGYRQRIQEELGLKNIEIVSAGGSAGGS [r12_748_TrROS] | 0.344 ± 0.098 kcal/mol | 0.0708 ± 0.13 kcal/mol
SAGGGRMIKLTFKSGETKTIPLSSDYPDAKVEVSEKDDKLYITVTYPNGEKITYEFPLSEVESIEILSAGGS [r16_658_JUSTAS] | 4.526 ± 0.042 kcal/mol | 4.7 ± 0.1 kcal/mol
SAGGSAGGSAGGSPFEGPRPVVVKPVSPEILAKTPPEEVKKRLKEELPESVTIVETNPLPSAGGSAGGSAGG [r7_487_JUSTAS] | 0.12 ± 0.1 kcal/mol | < -1 kcal/mol
